Key:
[1] = biological target: recombinant MCM8-9 complex, purified (human, UniProt Q9NXL9-1;Q9UJA3-1); test: native gel or EMSA
[2] = biological target: MBP-MCM8-9 complex, amylose bead-bound (human, UniProt Q9NXL9-1;Q9UJA3-1); test: pull-down
Chain of MBP-MCM8-9 complex, amylose bead-bound (Q9NXL9 whole entry, chain 1 of 2): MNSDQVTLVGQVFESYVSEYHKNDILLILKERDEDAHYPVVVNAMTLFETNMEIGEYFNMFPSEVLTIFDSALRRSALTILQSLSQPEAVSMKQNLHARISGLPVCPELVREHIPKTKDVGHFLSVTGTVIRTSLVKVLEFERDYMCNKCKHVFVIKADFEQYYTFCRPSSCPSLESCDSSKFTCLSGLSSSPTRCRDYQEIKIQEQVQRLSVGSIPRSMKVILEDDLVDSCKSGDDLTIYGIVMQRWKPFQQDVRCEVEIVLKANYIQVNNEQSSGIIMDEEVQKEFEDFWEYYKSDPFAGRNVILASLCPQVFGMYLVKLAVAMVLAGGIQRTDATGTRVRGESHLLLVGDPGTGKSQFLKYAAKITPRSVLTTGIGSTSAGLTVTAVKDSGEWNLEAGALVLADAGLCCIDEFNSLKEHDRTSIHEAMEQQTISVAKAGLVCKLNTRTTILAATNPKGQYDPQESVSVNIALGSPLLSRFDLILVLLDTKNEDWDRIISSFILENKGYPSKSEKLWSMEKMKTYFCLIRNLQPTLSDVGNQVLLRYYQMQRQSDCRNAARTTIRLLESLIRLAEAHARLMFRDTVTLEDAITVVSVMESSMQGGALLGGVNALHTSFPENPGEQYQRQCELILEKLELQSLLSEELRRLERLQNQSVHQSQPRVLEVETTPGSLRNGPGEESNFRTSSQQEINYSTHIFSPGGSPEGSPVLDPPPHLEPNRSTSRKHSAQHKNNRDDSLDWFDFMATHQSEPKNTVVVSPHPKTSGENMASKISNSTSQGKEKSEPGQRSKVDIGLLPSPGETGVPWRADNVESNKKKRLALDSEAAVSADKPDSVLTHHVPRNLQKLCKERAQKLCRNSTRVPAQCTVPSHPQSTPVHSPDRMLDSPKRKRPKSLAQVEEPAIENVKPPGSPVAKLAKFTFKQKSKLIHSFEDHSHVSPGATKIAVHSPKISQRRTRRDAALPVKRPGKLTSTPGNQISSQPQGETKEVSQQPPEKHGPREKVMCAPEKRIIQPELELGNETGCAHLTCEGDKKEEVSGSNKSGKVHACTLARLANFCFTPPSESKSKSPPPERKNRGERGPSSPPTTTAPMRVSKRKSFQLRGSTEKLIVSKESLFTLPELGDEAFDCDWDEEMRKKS
Chain of MBP-MCM8-9 complex, amylose bead-bound (Q9UJA3 whole entry, chain 2 of 2): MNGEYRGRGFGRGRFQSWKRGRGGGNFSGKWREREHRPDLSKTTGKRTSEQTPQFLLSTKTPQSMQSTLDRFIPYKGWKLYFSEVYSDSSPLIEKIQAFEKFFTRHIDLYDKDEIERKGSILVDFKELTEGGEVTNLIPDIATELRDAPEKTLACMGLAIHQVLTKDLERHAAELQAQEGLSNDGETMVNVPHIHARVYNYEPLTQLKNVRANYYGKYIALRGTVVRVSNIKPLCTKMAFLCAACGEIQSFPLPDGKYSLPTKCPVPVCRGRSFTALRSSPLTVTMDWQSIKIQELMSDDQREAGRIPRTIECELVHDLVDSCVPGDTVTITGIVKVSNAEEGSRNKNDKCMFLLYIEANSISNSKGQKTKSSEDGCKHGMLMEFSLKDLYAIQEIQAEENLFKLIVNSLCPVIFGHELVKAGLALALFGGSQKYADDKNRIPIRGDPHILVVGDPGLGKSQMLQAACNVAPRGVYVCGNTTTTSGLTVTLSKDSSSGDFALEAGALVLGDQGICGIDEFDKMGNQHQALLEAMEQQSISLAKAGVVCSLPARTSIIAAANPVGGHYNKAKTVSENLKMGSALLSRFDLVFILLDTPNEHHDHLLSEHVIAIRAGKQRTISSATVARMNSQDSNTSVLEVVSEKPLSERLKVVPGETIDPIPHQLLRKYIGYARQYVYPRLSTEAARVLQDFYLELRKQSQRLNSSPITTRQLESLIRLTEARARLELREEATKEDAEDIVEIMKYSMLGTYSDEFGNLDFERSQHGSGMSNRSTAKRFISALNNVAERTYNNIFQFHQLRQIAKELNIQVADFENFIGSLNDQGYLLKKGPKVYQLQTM

Chain of recombinant MCM8-9 complex, purified (Q9NXL9 whole entry, chain 1 of 2): as the sequence (Q9NXL9 whole entry, chain 1 of 2) above
Chain of recombinant MCM8-9 complex, purified (Q9UJA3 whole entry, chain 2 of 2): as the sequence (Q9UJA3 whole entry, chain 2 of 2) above

B1: MCM8IP-FLAG WT (natural protein)
chain: MACSLQKLFAVEEEFEDEDFLSAVEDAENRFTGSLPVNAGRLRPVSSRPQETVQAQSSRLLLLHPTAPSEALGLPDLDLCLPASSTPSADSRPSCIGAAPLRPVSTSSSWIGNQRRVTVTEVLRETARPQSSALHPLLTFESQQQQVGGFEGPEQDEFDKVLASMELEEPGMELECGVSSEAIPILPAQQREGSVLAKKARVVDLSGSCQKGPVPAIHKAGIMSAQDESLDPVIQCRTPRPPLRPGAVGHLPVPTALTVPTQQLHWEVCPQRSPVQALQPLQAARGTIQSSPQNRFPCQPFQSPSSWLSGKAHLPRPRTPNSSCSTPSRTSSGLFPRIPLQPQAPVSSIGSPVGTPKGPQGALQTPIVTNHLVQLVTAASRTPQQPTHPSTRAKTRRFPGPAGILPHQQSGRSLEDIMVSAPQTPTHGALAKFQTEIVASSQASVEEDFGRGPWLTMKSTLGLDERDPSCFLCTYSIVMVLRKAALKQLPRNKVPNMAVMIKSLTRSTMDASVVFKDPTGEMQGTVHRLLLETCQNELKPGSVLLLKQIGVFSPSLRNHYLNVTPNNLVHIYSPDSGDGSFLKPSQPFPKDSGSFQHDVAAKPEEGFRTAQNLEAEASPEEELPEADDLDGLLSELPEDFFCGTSS
binding result [1]: binds | binding result [2]: binds

Source: publication doi:10.1101/751974 (bioRxiv, 2019)
